Read-outs that look alike come from different tables or passages of the source.
Experiments:
[1] = molecular target: T1, Cynomolgus GUCY2C-ECD Cleaved (cynomolgus, UniProt P25092 24-430 (human entry)); test: direct DELFIA, RT
T1 construct: also called CyGUCY2C
T1 chain: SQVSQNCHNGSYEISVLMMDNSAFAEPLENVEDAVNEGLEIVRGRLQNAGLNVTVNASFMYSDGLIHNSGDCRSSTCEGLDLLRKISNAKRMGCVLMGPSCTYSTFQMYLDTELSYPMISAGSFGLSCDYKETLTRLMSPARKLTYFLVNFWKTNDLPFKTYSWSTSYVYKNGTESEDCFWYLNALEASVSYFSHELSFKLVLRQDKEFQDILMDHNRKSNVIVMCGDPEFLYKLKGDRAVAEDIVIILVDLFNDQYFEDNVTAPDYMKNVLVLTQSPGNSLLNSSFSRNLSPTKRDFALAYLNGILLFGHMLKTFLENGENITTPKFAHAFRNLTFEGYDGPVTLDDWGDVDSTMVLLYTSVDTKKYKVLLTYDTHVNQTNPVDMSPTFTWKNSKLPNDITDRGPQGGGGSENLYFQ

[2] = molecular target: T1, Cynomolgus GUCY2C-ECD Cleaved; test: direct DELFIA, 60 C
[3] = molecular target: T2, Human GUCY2c on tumor cells (T84, HT55) (human, UniProt P25092 24-1073); test: cell-based or functional assay
[4] = molecular target: T2, Human GUCY2c on tumor cells (T84, HT55); test: cell-based or functional assay; remark: listed apart in the source
[5] = molecular target: T3, Human CD3 on naive human T cells (human, UniProt P07766 23-207); test: cell-based or functional assay
Human CD3 epsilon-delta [6] = molecular target: T4, Human CD3 epsilon-delta (human); test: SPR, recombinant human CD3
T4 construct: Single-chain epsilon-linker-delta with His6; also called huCD3
T4 chain: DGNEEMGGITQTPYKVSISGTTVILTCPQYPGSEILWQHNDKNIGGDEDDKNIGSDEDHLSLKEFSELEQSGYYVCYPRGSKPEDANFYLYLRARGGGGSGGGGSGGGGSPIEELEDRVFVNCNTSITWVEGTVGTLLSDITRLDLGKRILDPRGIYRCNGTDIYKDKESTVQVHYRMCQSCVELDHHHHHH

Human CD3 epsilon-delta [7] = molecular target: T4, Human CD3 epsilon-delta; test: SPR, CD3 captured by anti-His, 25 C
[8] = molecular target: T5, Cynomolgus CD3 epsilon-delta (cynomolgus); test: SPR, CD3 captured by anti-His, 25 C
T5 chain: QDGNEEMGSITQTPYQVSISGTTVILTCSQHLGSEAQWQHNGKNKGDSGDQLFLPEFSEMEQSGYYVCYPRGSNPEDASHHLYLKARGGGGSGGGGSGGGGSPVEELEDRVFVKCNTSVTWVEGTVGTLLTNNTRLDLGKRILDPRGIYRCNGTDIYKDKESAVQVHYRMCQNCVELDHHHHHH

[9] = molecular target: T6, Human GUCY2C full length (SEQ ID NO: 224), recombinant protein (human, UniProt P25092 24-430, limits assumed); test: SPR, GUCY2c directly immobilized, 25 C
T6 construct: also called huGUCY2C; biotinylated human GUCY2c

[10] = molecular target: T6, Human GUCY2C full length (SEQ ID NO: …); test: SPR, GUCY2c directly immobilized, 37 C
[11] = molecular target: T1, Cynomolgus GUCY2C-ECD Cleaved; test: SPR, GUCY2c directly immobilized, 25 C
[12] = molecular target: T1, Cynomolgus GUCY2C-ECD Cleaved; test: SPR, GUCY2c directly immobilized, 37 C
[13] = molecular target: T7, Murine GUCY2C-ECD cleaved (mouse, UniProt Q3UWA6 20-433); test: SPR, GUCY2c directly immobilized, 37 C
T7 sequence: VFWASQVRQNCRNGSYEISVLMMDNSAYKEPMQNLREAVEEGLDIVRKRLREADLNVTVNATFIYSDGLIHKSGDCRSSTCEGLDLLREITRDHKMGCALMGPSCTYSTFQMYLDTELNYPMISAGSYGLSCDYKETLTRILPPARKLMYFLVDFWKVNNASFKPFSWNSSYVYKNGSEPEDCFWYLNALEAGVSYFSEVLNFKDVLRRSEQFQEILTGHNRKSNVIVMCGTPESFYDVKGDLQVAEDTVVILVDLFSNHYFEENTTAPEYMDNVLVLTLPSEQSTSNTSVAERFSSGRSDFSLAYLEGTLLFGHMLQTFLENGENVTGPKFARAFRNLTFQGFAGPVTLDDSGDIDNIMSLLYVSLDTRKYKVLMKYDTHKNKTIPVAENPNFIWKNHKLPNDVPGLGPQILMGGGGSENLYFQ

Human CD3 epsilon-delta [14] = molecular target: T4, Human CD3 epsilon-delta; test: SPR, CD3 captured by anti-His, printed 25 C (Table 33C)
[15] = molecular target: T2, Human GUCY2c on tumor cells (T84, HT55); test: flow cytometry titration on T84 tumor cells (PE-A Geo Mean against Ab in nM)
[16] = molecular target: T3, Human CD3 on naive human T cells; test: flow cytometry titration on naive human T cells (PE-A Geo Mean against concentration in nM)

T2 sequence (P25092 24-1073 limits assumed): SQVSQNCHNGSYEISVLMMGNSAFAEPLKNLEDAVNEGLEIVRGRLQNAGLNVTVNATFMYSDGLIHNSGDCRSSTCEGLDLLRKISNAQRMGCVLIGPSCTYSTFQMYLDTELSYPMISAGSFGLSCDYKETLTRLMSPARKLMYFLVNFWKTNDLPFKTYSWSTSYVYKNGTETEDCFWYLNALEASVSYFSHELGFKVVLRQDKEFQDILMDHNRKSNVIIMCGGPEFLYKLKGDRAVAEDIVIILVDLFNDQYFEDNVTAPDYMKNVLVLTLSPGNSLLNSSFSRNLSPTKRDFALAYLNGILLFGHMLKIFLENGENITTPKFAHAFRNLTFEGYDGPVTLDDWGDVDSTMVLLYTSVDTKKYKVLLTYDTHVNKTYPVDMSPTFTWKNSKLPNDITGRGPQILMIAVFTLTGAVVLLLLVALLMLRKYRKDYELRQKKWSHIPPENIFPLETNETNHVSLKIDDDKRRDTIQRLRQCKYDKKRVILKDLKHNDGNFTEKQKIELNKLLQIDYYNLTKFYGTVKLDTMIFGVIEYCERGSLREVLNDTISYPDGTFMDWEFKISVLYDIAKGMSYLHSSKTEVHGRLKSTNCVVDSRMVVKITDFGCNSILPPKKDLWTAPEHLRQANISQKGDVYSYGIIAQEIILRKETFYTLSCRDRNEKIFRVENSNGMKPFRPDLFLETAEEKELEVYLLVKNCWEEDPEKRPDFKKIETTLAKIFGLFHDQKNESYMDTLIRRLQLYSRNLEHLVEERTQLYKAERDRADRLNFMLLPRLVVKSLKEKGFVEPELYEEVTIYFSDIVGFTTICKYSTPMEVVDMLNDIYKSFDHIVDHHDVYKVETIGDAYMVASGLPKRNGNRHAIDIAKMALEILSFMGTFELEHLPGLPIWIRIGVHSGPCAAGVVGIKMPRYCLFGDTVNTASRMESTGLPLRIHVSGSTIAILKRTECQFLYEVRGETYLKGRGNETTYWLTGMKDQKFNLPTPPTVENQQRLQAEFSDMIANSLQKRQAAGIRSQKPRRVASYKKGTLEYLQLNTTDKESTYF
T6 sequence (P25092 24-430 F281L limits assumed): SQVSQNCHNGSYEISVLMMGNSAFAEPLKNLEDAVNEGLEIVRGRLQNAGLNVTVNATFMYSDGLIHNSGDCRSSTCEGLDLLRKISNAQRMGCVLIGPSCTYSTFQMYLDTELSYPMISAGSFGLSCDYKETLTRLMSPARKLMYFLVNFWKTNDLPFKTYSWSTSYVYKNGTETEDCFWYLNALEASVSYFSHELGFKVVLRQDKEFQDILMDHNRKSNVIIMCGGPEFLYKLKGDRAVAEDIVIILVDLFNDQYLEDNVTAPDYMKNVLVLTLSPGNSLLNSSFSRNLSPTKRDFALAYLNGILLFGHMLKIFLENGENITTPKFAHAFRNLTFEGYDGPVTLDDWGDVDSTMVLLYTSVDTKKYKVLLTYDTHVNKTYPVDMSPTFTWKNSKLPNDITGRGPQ

B1: GUCY2C-1608 (bispecific antibody)
chain 1: DIQLTQSPSSLSASVGDRVTITCRASESVDYYGSSLLQWYQQKPGKAPKLLIYAASKLASGVPSRFSGSGSGTDFTLTISSLQPEDFATYYCQQTRKAYTFGQGTKLEIKGGGSGGGGEVQLVESGGGLVQPGGSLRLSCAASGFTFSDYYMTWVRQAPGKGLEWVAFIRNQARGYTSDHNPSVKGRFTISRDNAKNSLYLQMNSLRAEDTAVYYCARDRPSYYVLDYWGQGTTVTVSSGCPPCPAPEAAGAPSVFLFPPKPKDTLMISRTPEVTCVVVDVSHEDPEVKFNWYVDGVEVHNAKTKPREEQYNSTYRVVSVLTVLHQDWLNGKEYKCKVSNKALPAPIEKTISKAKGQPREPQVCTLPPSREEMTKNQVSLWCLVKGFYPSDIAVEWESNGQPENNYKTTPPVLDSDGSFFLYSKLTVDKSRWQQGNVFSCSVMHEALHNHYTQKSLSLSPG
chain 2: DIQMTQSPSSLSASVGDRVTITCTSSQSLFNVRSQKNYLAWYQQKPGKAPKLLIYWASTRESGVPSRFSGSGSGTDFTLTISSLQPEDFATYYCKQSYDLFTFGGGTKVEIKGGGGSGGGGEVQLVESGGGLVQPGGSLRLSCAASGFTFSSYWMHWVRQAPGKGLEWIGEIKPSNELTNVHEKFKDRFTISVDKAKNSAYLQMNSLRAEDTAVYYCTRTITTTEGYWFFDVWGQGTLVTVSSGCPPCPAPEAAGAPSVFLFPPKPKDTLMISRTPEVTCVVVDVSHEDPEVKFNWYVDGVEVHNAKTKPREEQYNSTYRVVSVLTVLHQDWLNGKEYKCKVSNKALPAPIEKTISKAKGQPREPQVYTLPPCREEMTKNQVSLSCAVKGFYPSDIAVEWESNGQPENNYKTTPPVLDSDGSFFLVSKLTVDKSRWQQGNVFSCSVMHEALHNHYTQKSLSLSPG
notes: also called GUCY2c CD3 bispecific
[1]
  EC50: 9.84 nM
[2]
  EC50: 49.9 nM
[3]
  T84 tumor cell EC50 (T cell cytotoxicity, E:T 5:1): 0.19 nM
[4]
  T84 tumor cell EC50 (T cell cytotoxicity, E:T 5:1): 0.19 nM
[5]
  In vitro Cytotoxicity (nM), T-cell retargeting assay: 0.772 nM
Human CD3 epsilon-delta [6]
  Kd: 128 nM
Human CD3 epsilon-delta [7]
  Kd: 24 nM
  koff: 0.00999 s⁻¹
  kon: 418000 M⁻¹ s⁻¹
[8]
  Kd: 24.1 nM
  koff: 0.00916 s⁻¹
  kon: 381000 M⁻¹ s⁻¹
[9]
  Kd: 7.47 nM
  koff: 0.000758 s⁻¹
  kon: 101000 M⁻¹ s⁻¹
[10]
  Kd: 13.5 nM
  koff: 0.00217 s⁻¹
  kon: 161000 M⁻¹ s⁻¹
[11]
  Kd: 3.01 nM
  koff: 0.000417 s⁻¹
  kon: 138000 M⁻¹ s⁻¹
[12]
  Kd: 8.68 nM
  koff: 0.00166 s⁻¹
  kon: 191000 M⁻¹ s⁻¹
[13]
  Kd: 90.2 nM
  koff: 0.0116 s⁻¹
  kon: 129000 M⁻¹ s⁻¹
Human CD3 epsilon-delta [14]
  Kd: 124 nM
  koff: 0.09 s⁻¹
  kon: 744000 M⁻¹ s⁻¹
[15]
  Kd: 0.62 nM
[16]
  Kd: 35.4 nM

— patent US20230340151A1 (Pfizer, published 2023)
